The source of these data is patent US20220195015A1 (published 2022).

Experiment [1] addresses SARS-CoV-2 spike receptor binding domain (RBD), wild type (SARS-CoV-2, UniProt P0DTC2 319-539). Nature of the experiment: ELISA, RBD protein coated, mAb titrated.
The target is the same in experiment [2]. In words: ELISA on coated RBD protein.

The EC50 is the concentration that produces a half-maximal response.

B1: C564 (antibody, V domains shown)
VH: EVQLLESGGGLVQPGTSLRLSCAASGFTFSSYAMSWVRQAPGKGLEWVSAISSSGGSTYYADSVKGRFTISRDNSKNTLYLHMNSLRAEDTAVYYCATERIAVAGTRMYNWFDPWGQGTLVTVSS
VL: DIQMTQSPSSLSASVGDRVTLTCRASQSISSYLNWYQQKPGKAPNLLIYAASSLQSGVPSRFSGSGSGTDFTLTISSLQPEDFATYYCQQSYSAPPWTFGQGTKVEIK
In turn, B1 came in with an EC50 in experiment [1] of 14.6 ng/mL.

B2: C546 (antibody, V domains shown)
VH: EVQLLESGGGLVHPGGSLRLSCAASGFTFSTYAMHWVRQAPGKGLEWVSAISGSGTGTFYADSVKGRFSISRDNSKNTLYLQMNSLRAEDTAVYYCATERIAVSDTRMYNWFDPWGQGTLVTVSS
VL: DIQMTQSPSSLSASVGDRVTLTCRASQGISTYLNWYQQKPGKAPNLLIYAASSLQSGVPSRFSGSGSGTDFTLTISSLQPEDFATYYCQQSYSAPPWTFGQGTKVEIK
As to B2, a half-maximal response in experiment [1] (EC50) required 3.57 ng/mL.

B3: C213 (antibody, V domains shown)
VH: EVQLVESGGGLVKPGGSLRLSCAASGFTFSSYSMNWVRQAPGKGLEWVSSISSSSSYIYYADSVKGRFTISRDNAKNSLYLQMNSLRAEDTAVYYCARVQVGARGWVDYWGQGTLVTVSS
VL: NFMLTQPHSVSESPGKTVTISCTRSSGSIASNYVQWYQQRPGSAPTTVIYEDNERPSGVPDRFSGSIDSSSNSASLTISGLKTEDEADYYCQSYDRINWVFGGGTKLTVL
Take B3: it took 2.02 ng/mL to reach a half-maximal effect in experiment [1] (EC50).

B4: C545 (antibody, V domains shown)
VH: EVQLLESGGGLVKPGGSLRLSCAASGFTFSDYSMTWVRQAPGKGLEWVSFISSSSTYIYYADSVKGRFTISRDNAKSSLYLQMNRLRAEDTAVYYCTRVQVGARGWADYWGQGTLVTVSS
VL: NFMLTQPLSVSESPGKTVTISCTRSSGSIASNYVQWYQQRPGGAPTTVIYEDTQRPSGVPDRFSGSIDSSSNSASLTISGLKTEDEADYYCQSCDTINWVFGGGTKLTVV
In experiment [1], B4 yielded a concentration for a half-maximal effect (EC50) of 3.68 ng/mL.

B5: C217 (antibody, V domains shown)
VH: EVQLVESGGGLVKPGGSLRLSCAASGFTFSSYSMNWVRQAPGKGLEWVSFISSRSSYIYYADSVKGRFTISRDNAKNSLYLQMNSLRAEDTAVYYCARVQVGARGWVDYWGQGTLVTVSS
VL: NFMLTQPHSVSESPGKTVTISCTRSSGSIASNYVQWYQQRPGSAPTTVIYEDNQRPSGVPDRFSGSIDSSSNSASLTISGLKTEDEADYYCQSYDSINWVFGGGTKLTVL
In turn, B5 registered an EC50 in experiment [1] of 2.28 ng/mL.

B6: C542 (antibody, V domains shown)
VH: EVQLVESGGGLVQPGGSLRLSCAASGLTVTSNYMSWVRQAPGRGLEWVSLIYPGGTTYYADSVKGRFTVSRDNSKNTLYLQMDSLRAEDTGVYYCARETLGRGGDCWGQGTLVTVSS
VL: DIQMTQSPSSLSASVGDRVTITCQASQDISNFLNWYQQKPGKAPKLLIYDASNLETGVPSRFSGSRSGTDFTFTISSLQPDDIATYYCQQYDNLPRSFGQGTKLEIK
Molecule B6 had an EC50 in experiment [1] of 1.07 ng/mL.

B7: C552 (antibody, V domains shown)
VH: QVQLVESGGGVVQPGRSLRLSCAASGFTFSSYAMHWVRQAPGKGLEWVALISYDGSNKHYADSVKGRFTISRDNSKNTLYLQMNSLRAEDTAVYYCARAGTTNSDYFDYWGQGTLVTVSS
VL: SYELTQPPSVSVAPGKTARITCGGNNIGSKSVHWYQQKPGQAPVLVIYYDTDRPSGIPERFSGSNSGNTATLTISRVEAGDEADYYCQVWDSSSALWVFGGGTKLTVL
For the molecule B7, in experiment [1], the EC50 stood at 1.08 ng/mL.

B8: C553 (antibody, V domains shown)
VH: QVQLVESGGGVVQPGRSLRLSCAASGFTFSNYEIHWVRQAPGKGLEWVAGISYDGSTKYYADSVKGRFTISRDNSKNTLYLQMNSLRPEDTAVFYCARAGTTNSDYFDYWGQGTLVTVSS
VL: SYELTQPPSVSVAPGMTARITCGGNTIGSKSVHWYQQKAGQAPVLVIYYDSDRPSGIPERFSGSNSGNTATLTISRVEAGDEADYYCQVWDSSSVLWVFGGGTKLTVL
B8 displayed an EC50 in experiment [1] of 1.19 ng/mL.

B9: C544 (antibody, V domains shown)
VH: QVQLVQSGAEVKKPGASVKVSCKASGYTFSSHDINWVRQATGQGLEWVGWMNPNSGNTGSAQSFQGRVTLTRNASISTAYLELSSLRSEDTAVYFCARGFSLTWYFDLWGRGTLVTVSS
VL: SYELTQPPSVSAAPGKTARITCGGNNIGGKNVHWYQQKPGQAPVLVVFDDSDRPSGIPERFSGSNSGNTATLTISRVEAGDEADYYCQLWDSTSDHPDVVFGGGTQLTVL
For B9, the EC50 in experiment [1] was 2.34 ng/mL.

B10: C548 (antibody, V domains shown)
VH: QVQLVQSGAEVKKPGSSVKVSCKASGGTFSSYAISWVRQAPGQGLEWMGGIIPIFGTANYAQKFQGRVTITADESTSTAYMELSSLRSEDTAVYYCARREAYGPRDYYYYYGMDVWGQGTTVTVSS
VL: QSALTQPPSASASLGASVTLTCTLSSGYSNYKVDWYQQRPGKGPRFVMRVGTGGIVGSKGDGIPDRFSVLGSGLNRYLTIKNIQEEDESDYHCGADQGSGSNFVGVFGGGTKLTVL
B10: the EC50 in experiment [1] was 1.72 ng/mL.

B11: C550 (antibody, V domains shown)
VH: EVQLVQSGAEVKKPGESLKISCKGSGYRFTNYWIGWVRQMPGKGLEWMGIIYPGDSDTRYSPSFQGQVTISADKSITTAYLQWSSLKASDTAMYYCARLSDRWYSPFDPWGQGTLVTVSS
VL: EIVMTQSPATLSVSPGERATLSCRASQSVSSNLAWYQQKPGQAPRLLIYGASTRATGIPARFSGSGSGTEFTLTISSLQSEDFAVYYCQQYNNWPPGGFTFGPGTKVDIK
Take B11: a half-maximal response in experiment [1] (EC50) required 2.56 ng/mL.

B12: C532 (antibody, V domains shown)
VH: EVQLVQSGAEVKKPGESLKISCKGSGYRFTNYWIGWVRQMPGKGLEWIGNIFPGDSDSRYSPSFQGQVTISVDMSITTAYLHWSSLKASDTAIYYCARLSERWYSPFDSWGQGTLVTVSS
VL: EIVMTQSPATLSVSPGERATLSCRASQSVSSNLAWYQQKPGQAPRLLIYGASTRATGFPARFSGSGSGTEFTLTISSLQSEDFAVYFCQQYNNWPPGGFTFGPGTKVDIK
With B12, a half-maximal effect in experiment [1] (EC50) was put at 1 ng/mL.

B13: C555 (antibody, V domains shown)
VH: EVQLVESGGGLVKPGGSLRLSCAASGLTFSTTWMSWVRQAPGKGLEWVGRIKSKGDGGTTDFAGPVKGRFSISRDDSKNTLYLHMNSLKTEDTAVYYCTTDDPGSYYYGMDVWGQGTTVTVSS
VL: QTVVTQEPSLTVSPGGTVTLTCASSTGAVTSGHYPYWFQQKPGQAPRTLIYATSNKHSWTPARFSGSLLGGKAALTLSGAQPEDEADYYCLLSYSGARVFGGGTKLTVL
B13 displayed an EC50 in experiment [1] of 2.88 ng/mL.

B14: C164 (antibody, V domains shown)
VH: EVQLVESGGGLVQPGGSLRLSCAASGFSVSTKYMTWVRQAPGKGLEWVSVLYSGGSDYYADSVKGRFTISRDNSKNALYLQMNSLRVEDTGVYYCARDSSEVRDHPGHPGRSVGAFDIWGQGTMVTVSS
VL: QSALTQPASVSGSPGQSITISCTGTSNDVGSYTLVSWYQQYPGKAPKLLIFEVTKRSSGISNRFSGSKSGNTASLTISGLQGEDEADYYCCSYAGASTFVFGGGTKLTVL
B14 came in with an EC50 in experiment [2] of 1.41 ng/mL.

B15: C055 (antibody, V domains shown)
VH: EVQLVESGGGLVQPGGSLRLSCAASGFSVSTKYMTWVRQAPGKGLEWVSVLYSGRTDYYADSVKGRFTISRDSSKNILYLQMSSLRVEDTGFYYCARDSSEVRDHPGHPGRSVGAFDIWSQGTMVTVSS
VL: QSALTQPASVSGSPGQSIAISCTGTSNDVGSYTLVSWYQQYPGKAPKLLIFEDSQRSSGISNRFSGSKSGNTASLTISGLRGEDEADYYCCSYAGSHTFVFGGGTKVTVL
As to B15, it took 1.25 ng/mL to reach a half-maximal effect in experiment [2] (EC50).

B16: C143 (antibody, V domains shown)
VH: EVQLVESGGGLVQPGGSLRLSCAASGFSVSTKYMTWVRQAPGKGLEWVSVLYSGGSDYYADSVKGRFTISRDNSKNALYLQMNSLRVEDTGVYYCARDSSEVRDHPGHPGRSVGAFDIWGQGTMVTVSS
VL: QSALTQPASVSGSPGQSITISCTGTSNDVGSYTLVSWYQQYPGKAPKLLIFEGTKRSSGISNRFSGSKSGNTASLTISGLQGEDEADYYCCSYAGASTFVFGGGTKLTVL
As to B16, in experiment [2], the 50% effective concentration (EC50) was determined as 2.01 ng/mL.

B17: C558 (antibody, V domains shown)
VH: EVQLVQSGAEVKKPGESLKISCKVSGYTFTNYWIGWVRQMPGKGLEWMGIIYPGDSDTRYSPSFQGQVTISADKSIITAYLQWSSLKASDTAMYYCARVPSSSDYGDYGGFEYWGQGTLVTVSS
VL: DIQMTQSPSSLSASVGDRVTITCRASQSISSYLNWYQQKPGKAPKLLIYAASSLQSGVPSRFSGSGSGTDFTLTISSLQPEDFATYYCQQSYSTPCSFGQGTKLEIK
In experiment [1], B17 had an EC50 of 2.41 ng/mL.

B18: C559 (antibody, V domains shown)
VH: EVQLVQSGAEVKKPGESLKISCKVSGYTFTNYWIGWVRQMPGKGLEWMGIIFPGDSDTRYSPSFQGQVTISADRSITTAYLQWRSLKASDTAMYYCARVPSSSDYGDYGGFEYWGQGTLVTVSS
VL: DIQMTQSPSSLSASVGDRVTITCRASQTITIYLNWYQQKPGKAPKLLIYAASSLQSGVPSRFSGSGSGTDFTLTISSLQPEDFATYYCQQSYSTPCSFGQGTKLEIK
In experiment [1], B18 gave an EC50 of 2.89 ng/mL. The EC50 values of the last two molecules are within 1.5-fold of each other.

B19: C058 (antibody, V domains shown)
VH: QVQLVQSGAEVKKPGASVKVSCKASGYIFTDYSMHWVRQAPGQGLEWIGWVNPNSGGTNYAQKFQGWVTMARDTSITTVYMELSRLKSDDTAVYFCARGPLFHRLVYDFWSGYHDGFDMWGQGTMVTVSS
VL: QSALTQPASVSGSPGQSITISCTGTSSDVGGYKFVSWYQQHPGKAPKLMIYEVSNRPSGVSNRFSGSKSGNTASLTISGLQAEDEADYYCNSYTSSSTWVFGGGTKLTVL
Take B19: a half-maximal effect in experiment [2] (EC50) was put at 2.28 ng/mL.

B20: C560 (antibody, V domains shown)
VH: EVQLVESGGGLVQPGRSLRLSCAASGFTFDDYAMHWVRQAPGKGLEWVSGVSWNSGTIGYADSVKGRFTISRDNAKNSLYLQMNSLRAEDTALYYCAKIADIVRAYDFWSGQHFDAFDIWGQGTMVTVSS
VL: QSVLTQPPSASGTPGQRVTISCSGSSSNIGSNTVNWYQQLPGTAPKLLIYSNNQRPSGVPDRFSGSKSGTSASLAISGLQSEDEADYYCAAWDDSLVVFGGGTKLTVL
As for B20, in experiment [1], a half-maximal effect (EC50) was put at 1.6 ng/mL.

B21: C561 (antibody, V domains shown)
VH: EVQLVESGGGLVQPGRSLRLSCAASGFTFDDYAIHWVRQAPGKGLEWVSGVSWNSGTIGYADSVKGRFFISRDNAKNSLYLQMNSLRAEDTAWYYCAKIADLVGAYDFRSGQHFAAFDVWGQGTMVTVSS
VL: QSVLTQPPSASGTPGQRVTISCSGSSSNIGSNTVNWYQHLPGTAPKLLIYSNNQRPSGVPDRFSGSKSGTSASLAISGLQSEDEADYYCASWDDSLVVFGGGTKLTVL
With B21, the EC50 in experiment [1] came to 1.53 ng/mL.

B22: C549 (antibody, V domains shown)
VH: QVQLVQSGAEVKKPGSSVKVSCKASGGTFSTSAISWVRQAPGQGLEWMGGIIPFFGTPNYAQKFQGRVTIIADESTTTAYMELSGLRFEDSAVYYCARREPYGPRDYYYFFGMDVWGPGTTVTVSS
VL: QSALTQPPFASASLGASVTLTCTLSSDYSYYKVDWYQQRPGKGPRFVIRVGPGGIVGSKGDGFPDRFSVLGSGLNRSLTINNIQEEDEGDYHCGADEGSGGTFVGVFGGGTKLTV
As to B22, in experiment [1], the response was half-maximal at 1.76 ng/mL (EC50).
